In paper PMC8387365 (Nature chemical biology, 2021) one finds Kd data, which are given here for one molecule.

Broadly, the Kd is a measure of binding affinity in units of concentration.

This assay concerns the target T1, Kif4A-GFP (UniProt O95239 1-1232).
T1 sequence: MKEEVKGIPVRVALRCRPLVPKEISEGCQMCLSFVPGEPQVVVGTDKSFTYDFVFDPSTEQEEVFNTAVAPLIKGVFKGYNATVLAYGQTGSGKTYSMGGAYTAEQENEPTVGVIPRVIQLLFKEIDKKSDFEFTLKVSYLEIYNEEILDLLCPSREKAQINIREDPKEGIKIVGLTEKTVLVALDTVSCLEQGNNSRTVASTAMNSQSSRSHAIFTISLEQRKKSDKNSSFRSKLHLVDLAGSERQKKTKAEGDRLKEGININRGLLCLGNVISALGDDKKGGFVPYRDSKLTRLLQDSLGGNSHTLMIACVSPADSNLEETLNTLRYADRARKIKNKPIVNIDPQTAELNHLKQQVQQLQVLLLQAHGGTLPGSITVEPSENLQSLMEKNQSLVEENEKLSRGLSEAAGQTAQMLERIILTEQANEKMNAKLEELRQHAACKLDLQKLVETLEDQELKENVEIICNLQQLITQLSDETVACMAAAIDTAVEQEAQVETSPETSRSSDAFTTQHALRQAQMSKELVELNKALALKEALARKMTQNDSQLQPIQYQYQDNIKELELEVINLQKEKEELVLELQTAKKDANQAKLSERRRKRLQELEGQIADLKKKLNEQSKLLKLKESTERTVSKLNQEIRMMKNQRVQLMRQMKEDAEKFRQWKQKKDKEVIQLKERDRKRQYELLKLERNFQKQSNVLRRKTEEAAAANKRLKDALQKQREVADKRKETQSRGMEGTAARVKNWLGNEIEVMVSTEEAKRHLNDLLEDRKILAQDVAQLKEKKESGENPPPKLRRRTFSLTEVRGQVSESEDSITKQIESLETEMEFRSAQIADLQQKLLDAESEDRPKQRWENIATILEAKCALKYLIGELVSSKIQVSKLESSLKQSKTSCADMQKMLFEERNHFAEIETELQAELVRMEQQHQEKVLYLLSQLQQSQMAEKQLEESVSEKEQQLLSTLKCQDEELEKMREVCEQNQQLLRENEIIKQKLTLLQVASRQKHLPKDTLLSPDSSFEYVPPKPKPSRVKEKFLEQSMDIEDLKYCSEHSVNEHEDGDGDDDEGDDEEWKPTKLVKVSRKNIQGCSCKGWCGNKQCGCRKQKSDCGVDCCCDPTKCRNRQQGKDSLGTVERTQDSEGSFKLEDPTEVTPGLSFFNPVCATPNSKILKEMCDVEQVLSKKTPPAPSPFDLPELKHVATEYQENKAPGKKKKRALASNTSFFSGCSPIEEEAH
In words: BLI. For orientation: In BLI a coated tip is dipped into the sample, and binding shifts an interference pattern.

B1: full-length PRC1 (Protein Regulator of Cytokinesis-1) (natural protein)
chain: MRRSEVLAEESIVCLQKALNHLREIWELIGIPEDQRLQRTEVVKKHIKELLDMMIAEEESLKERLIKSISVCQKELNTLCSELHVEPFQEEGETTILQLEKDLRTQVELMRKQKKERKQELKLLQEQDQELCEILCMPHYDIDSASVPSLEELNQFRQHVTTLRETKASRREEFVSIKRQIILCMEALDHTPDTSFERDVVCEDEDAFCLSLENIATLQKLLRQLEMQKSQNEAVCEGLRTQIRELWDRLQIPEEEREAVATIMSGSKAKVRKALQLEVDRLEELKMQNMKKVIEAIRVELVQYWDQCFYSQEQRQAFAPFCAEDYTESLLQLHDAEIVRLKNYYEVHKELFEGVQKWEETWRLFLEFERKASDPNRFTNRGGNLLKEEKQRAKLQKMLPKLEEELKARIELWEQEHSKAFMVNGQKFMEYVAEQWEMHRLEKERAKQERQLKNKKQTETEMLYGSAPRTPSKRRGLAPNTPGKARKLNTTTMSNATANSSIRPIFGGTVYHSPVSRLPPSGSKPVAASTCSGKKTPRTGRHGANKENLELNGSILSGGYPGSAPLQRNFSINSVASTYSEFAKDPSLSDSSTVGLQRELSKASKSDATSGILNSTNIQS
For the molecule B1, the Kd worked out at 12.5 ± 2.09 nM.
